The target of assay [1] is T1, N-terminally FLAG-tagged mouse Ang2 (HEK293T conditioned medium) (mouse, UniProt O35608 19-496).
T1 construct: may be a nucleotide entry; also called mAng2; FLAG-mAng2
T1 sequence: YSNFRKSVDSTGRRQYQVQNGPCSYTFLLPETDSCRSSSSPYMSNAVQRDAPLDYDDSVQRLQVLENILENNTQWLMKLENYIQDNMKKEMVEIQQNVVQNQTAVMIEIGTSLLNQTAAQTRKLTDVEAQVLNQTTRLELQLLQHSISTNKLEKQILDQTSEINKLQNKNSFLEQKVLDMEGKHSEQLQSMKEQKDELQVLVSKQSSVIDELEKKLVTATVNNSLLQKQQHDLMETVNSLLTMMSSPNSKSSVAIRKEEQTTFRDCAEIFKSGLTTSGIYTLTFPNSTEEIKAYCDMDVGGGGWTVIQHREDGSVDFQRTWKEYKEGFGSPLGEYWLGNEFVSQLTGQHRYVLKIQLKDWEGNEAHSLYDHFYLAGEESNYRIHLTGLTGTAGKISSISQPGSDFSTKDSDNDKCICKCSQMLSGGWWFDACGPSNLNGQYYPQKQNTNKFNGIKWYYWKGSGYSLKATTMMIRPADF
Description: competition ELISA, periplasmic extract, FLAG-mAng2 on mTie2/Fc. How it is done:
(§1) In brief, human Tie2/Fc chimera (R&D Systems, Minneapolis, Minn., USA) is biotinylated using N-hydroxysulfosuccinimide ester of biotin (Thermo Fisher Scientific, Rockford, Ill., USA). […] To this mixture, the Acceptor beads and 0.3 nM biotinylated human Tie2/Fc chimeras are added and further incubated for 2 hours at room temperature. Finally, streptavidin conjugated Donor beads (Perkin Elmer, Waltham, Mass., US) are added and the mixture is incubated for an additional 2 hours at room temperature. Assay buffer is PBS+0.03% Tween-20+0.1% BSA. Fluorescence is measured using the Envision Multilabel Plate reader (Perkin Elmer, Waltham, Mass., USA) using an excitation wavelength of 680 nm and an emission wavelength of 520 nm. […] In brief, human or mouse Tie2/Fc chimera (R&D Systems, Minneapolis, Minn., USA) are immobilized at 2 μg/mL overnight at 4° C. in a 96-well MaxiSorp plate (Nunc, Wiesbaden, Germany). Wells are blocked with a 1% casein solution. […] This mixture is added to the Tie2/Fc coated well and incubated for 2 hours at room temperature. Residual binding of Ang is detected using HRP-conjugated anti-FLAG M2 antibody (Sigma, St Louis, Mo., USA).

For assay [2], the target named is T2, FLAG-tagged recombinant human Ang1 (Alexis Biochemicals) (human, UniProt Q15389 20-498, limits assumed).
T2 construct: Bought reagent; also called hAng1; FLAG-hAng1
T2 sequence (looked up): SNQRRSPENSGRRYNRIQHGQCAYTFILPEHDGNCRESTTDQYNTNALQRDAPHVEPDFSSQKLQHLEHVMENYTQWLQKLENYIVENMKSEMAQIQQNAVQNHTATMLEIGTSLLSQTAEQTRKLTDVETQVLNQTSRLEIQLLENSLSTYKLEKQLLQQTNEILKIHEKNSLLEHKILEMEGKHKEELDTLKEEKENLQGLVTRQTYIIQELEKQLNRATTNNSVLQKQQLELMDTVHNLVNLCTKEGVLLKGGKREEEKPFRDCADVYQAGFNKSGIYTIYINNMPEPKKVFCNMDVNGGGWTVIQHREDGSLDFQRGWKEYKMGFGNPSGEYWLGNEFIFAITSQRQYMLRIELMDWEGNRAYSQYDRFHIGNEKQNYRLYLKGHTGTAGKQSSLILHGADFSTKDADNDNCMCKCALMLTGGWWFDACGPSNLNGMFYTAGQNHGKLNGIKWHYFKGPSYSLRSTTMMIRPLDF
Description: ratio of IC50 in hAng1/hTie2 ELISA to IC50 in hAng2/hTie2 ELISA. How it is done:
In brief, 2 μg/mL of Tie2/Fc chimera (R&D Systems, Minneapolis, Minn., USA) is coated in a 96-well MaxiSorp plate (Nunc, Wiesbaden, Germany).
In brief, 2 μg/mL of recombinant human Tie2-Fc (R&D Systems, Minneapolis, Minn., USA) is coated overnight at 4° C. in a 96-well MaxiSorp plate (Nunc, Wiesbaden, Germany). Coated wells are blocked with a 1% casein solution.

Assay [3] deals with T3, recombinant human Ang2-FLD (human, UniProt O15123 275-496, limits assumed).
T3 construct: domain: FLD; not used
T3 sequence (looked up): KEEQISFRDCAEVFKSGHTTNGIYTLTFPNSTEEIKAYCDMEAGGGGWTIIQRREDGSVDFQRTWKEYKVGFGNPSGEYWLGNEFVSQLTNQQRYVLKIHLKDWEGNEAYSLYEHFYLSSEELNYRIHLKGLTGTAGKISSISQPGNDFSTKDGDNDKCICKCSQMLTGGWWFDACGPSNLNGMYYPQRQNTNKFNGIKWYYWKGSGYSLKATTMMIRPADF
Description: SPR (Biacore T100), binder on CM5 chip, Ang2-FLD as analyte. How it is done: (§2) In brief, VHH and benchmark compounds are immobilized on a CM5 chip via amine coupling. […] Ang2-FLD species are allowed to associate for 2 min and to dissociate for 20 min at a flow rate of 45 μL/min. In between injections, the surfaces are regenerated with a 10 sec pulse of 25 mM NaOH and 60 sec stabilization period. Association/dissociation data are evaluated by fitting a 1:1 interaction model (Langmuir binding). The affinity constant KD is calculated from resulting association and dissociation rate constants kₐ and kd and are depicted in Table 8.

Assay [4] addresses T4, recombinant cynomolgus Ang2-FLD (cynomolgus).
T4 construct: domain: FLD; also called cyno Ang2-FLD
Described as above. How it is done: as §2

For assay [5], the target named is T5, recombinant mouse Ang2-FLD (mouse, UniProt O35608 275-496, limits assumed).
T5 construct: domain: FLD
T5 sequence (looked up): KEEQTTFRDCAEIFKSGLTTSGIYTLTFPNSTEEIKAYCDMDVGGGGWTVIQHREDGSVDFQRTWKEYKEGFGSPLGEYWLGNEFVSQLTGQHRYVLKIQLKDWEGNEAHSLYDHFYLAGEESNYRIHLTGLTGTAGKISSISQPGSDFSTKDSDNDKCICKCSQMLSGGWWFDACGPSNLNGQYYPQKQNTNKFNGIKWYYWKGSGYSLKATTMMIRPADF
The description is as above. How it is done: as §2

The target of assay [6] is T1, N-terminally FLAG-tagged mouse Ang2 …. Description: competition ELISA, FLAG-mAng2 on coated mTie2-Fc. How it is done:
(§3) In brief, 2 μg/mL of recombinant mouse Tie2-Fc or cyno Tie2-Fc is coated overnight at 4° C. in a 96-well MaxiSorp plate (Nunc, Wiesbaden, Germany). Coated wells are blocked with a 1% casein solution.

The target of assay [7] is T2, FLAG-tagged recombinant human Ang1 …. Description: competition ELISA, periplasmic extract, FLAG-hAng1 on hTie2/Fc. How it is done: as §1
Assay [8] addresses T6, N-terminally FLAG-tagged cynomolgus Ang2 (HEK293T conditioned medium) (cynomolgus, UniProt O15123 19-496 (human entry), limits assumed).
T6 construct: may be a nucleotide entry; also called cAng2; FLAG-cAng2
T6 chain: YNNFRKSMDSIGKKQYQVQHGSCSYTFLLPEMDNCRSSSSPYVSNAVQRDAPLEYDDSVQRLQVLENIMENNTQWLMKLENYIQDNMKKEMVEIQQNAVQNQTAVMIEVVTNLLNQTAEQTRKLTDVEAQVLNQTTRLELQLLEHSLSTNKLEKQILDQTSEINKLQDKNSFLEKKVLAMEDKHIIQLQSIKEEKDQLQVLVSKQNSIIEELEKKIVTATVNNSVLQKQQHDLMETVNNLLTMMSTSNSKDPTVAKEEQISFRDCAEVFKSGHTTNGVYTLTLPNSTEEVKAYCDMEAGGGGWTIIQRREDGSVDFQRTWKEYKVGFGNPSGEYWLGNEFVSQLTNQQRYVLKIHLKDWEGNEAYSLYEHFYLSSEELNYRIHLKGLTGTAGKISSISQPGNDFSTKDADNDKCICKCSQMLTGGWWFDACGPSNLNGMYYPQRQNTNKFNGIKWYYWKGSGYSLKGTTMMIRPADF
In words: competition ELISA, FLAG-cAng2 on coated cTie2-Fc. How it is done:
as §3

The target in assay [9] is T7, FLAG-tagged mouse Ang2 (mouse, UniProt O35608 19-496).
T7 construct: N-terminally FLAG-tagged, conditioned medium of HEK293T cells; also called mAng2; FLAG-mAng2
T7 sequence: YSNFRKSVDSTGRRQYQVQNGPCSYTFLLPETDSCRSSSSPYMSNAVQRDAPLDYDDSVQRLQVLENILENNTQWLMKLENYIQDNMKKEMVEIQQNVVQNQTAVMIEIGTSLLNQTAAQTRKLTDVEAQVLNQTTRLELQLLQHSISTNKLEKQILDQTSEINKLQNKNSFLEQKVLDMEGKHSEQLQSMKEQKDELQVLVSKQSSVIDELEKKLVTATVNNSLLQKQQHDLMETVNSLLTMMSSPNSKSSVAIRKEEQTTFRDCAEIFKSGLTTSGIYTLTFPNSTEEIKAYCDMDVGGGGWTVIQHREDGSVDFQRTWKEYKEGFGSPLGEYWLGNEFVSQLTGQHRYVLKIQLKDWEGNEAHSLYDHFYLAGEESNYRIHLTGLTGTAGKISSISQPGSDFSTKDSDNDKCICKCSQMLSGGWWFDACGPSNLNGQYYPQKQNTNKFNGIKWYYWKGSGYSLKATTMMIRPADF
Description: competition ELISA: FLAG-mAng2 binding to coated mTie2-Fc. How it is done:
as §3

The target of assay [10] is T7, FLAG-tagged mouse Ang2. The description is as above. How it is done: as §3
The source holds these as a separate data set.

The target of assay [11] is T8, FLAG-tagged cynomolgus Ang2 (cynomolgus, UniProt O15123 19-496 (human entry), limits assumed).
T8 construct: N-terminally FLAG-tagged, conditioned medium of HEK293T cells; also called cAng2; FLAG-cAng2
T8 chain: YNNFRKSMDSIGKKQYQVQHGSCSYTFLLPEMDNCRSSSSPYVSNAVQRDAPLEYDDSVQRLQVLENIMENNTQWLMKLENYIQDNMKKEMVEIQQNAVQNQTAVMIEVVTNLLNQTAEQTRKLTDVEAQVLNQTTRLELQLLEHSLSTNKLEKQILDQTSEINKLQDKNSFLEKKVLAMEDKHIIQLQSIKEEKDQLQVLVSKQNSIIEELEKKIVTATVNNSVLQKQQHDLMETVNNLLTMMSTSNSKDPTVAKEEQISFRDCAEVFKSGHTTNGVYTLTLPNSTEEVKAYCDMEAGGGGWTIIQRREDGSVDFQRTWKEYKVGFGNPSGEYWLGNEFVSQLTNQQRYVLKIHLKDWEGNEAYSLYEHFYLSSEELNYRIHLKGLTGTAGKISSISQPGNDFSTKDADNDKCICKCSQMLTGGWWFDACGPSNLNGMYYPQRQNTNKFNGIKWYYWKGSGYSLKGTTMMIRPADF
Description: competition ELISA: FLAG-cAng2 binding to coated cTie2-Fc. How it is done: as §3

Assay [12] has as its target T8, FLAG-tagged cynomolgus Ang2. The assay is described as above.
Assay [13] deals with T7, FLAG-tagged mouse Ang2. Description: competition ELISA: FLAG-mAng2 binding to coated mTie2-Fc. How it is done:
as §3
This is another data set of the same source.

Assay [14] concerns the target T8, FLAG-tagged cynomolgus Ang2. In words: competition ELISA: FLAG-cAng2 binding to coated cTie2-Fc. How it is done: as §3

Like-named read-outs stand apart in the source and are kept apart here. Where only a bound is given, the exact number is not on record here.

B1: VHH 28D10 (VHH)
VHH: EVQLVESGGGLVQAGGSLRLSCAASGFTLDDYAIGWFRQAPGKEREGVSCIRDSDGSTYYADSVKGRFTISSDNDKNTVYLQMNSLKPEDTAVYYCAAVPAGRLRFGEQWYPLYEYDAWGQGTQVTVSS
notes: also called 028D10; not shown: C-terminal c-myc tag and His6 tag
On to B1, for which the “% inh” value in [1] was found to be 93%; in assay [7] it was 4%. Besides, the hAng1/hAng2 ratio in assay [2] was over 3080. The Kd was found to be 1.3 nM in assay [3], 1.4 nM in assay [4] and 5.6 nM in [5]. Besides, the koff in assay [3] was 0.0062 s⁻¹; in assay [4], 0.025 s⁻¹; in assay [5], 0.011 s⁻¹. Moreover, the kon in assay [3] worked out at 4.9e+06 M⁻¹ s⁻¹; in assay [4] it was 1.8e+07 M⁻¹ s⁻¹; in assay [5], 1.9e+06 M⁻¹ s⁻¹. The half-maximal inhibitory concentration (IC50) turned out to be 6.1 nM in assay [6] and 2 nM in [8].

B2: VHH 00042 (VHH, not shown: small tags and cut ends)
VHH: EVQLVESGGGLVQPGGSLRLSCAASGFTLDDYAIGWFRQAPGKEREGVSSIRDNDGSTYYADSVKGRFTISSDNSKNTVYLQMNSLRPEDTAVYYCAAVPAGRLRFGEQWYPLYEYDAWGQGTLVTVSS
On to B2, for which the half-maximal inhibitory concentration (IC50) was found to be 1.9 nM with FLAG-tagged mouse Ang2 [9], 1.91 nM with FLAG-tagged mouse Ang2 [10], 0.8 nM in assay [11] and 0.753 nM in assay [12].

B3: VHH 00027 (VHH, not shown: small tags and cut ends)
VHH: EVQLVESGGGLVQAGGSLRLSCAASGFTLDDYAIGWFRQAPGKEREGVSSIRDNDGSTYYADSVKGRFTISSDNDKNTVYLQMNSLKPEDTAVYYCAAVPAGRLRFGEQWYPLYEYDAWGQGTLVTVSS
notes: Variant of 28D10 carrying C50S/S53N and Q108L
For B3, the IC50 with FLAG-tagged mouse Ang2 [9] stood at 2 nM; in the assay with FLAG-tagged mouse Ang2 [10], 1.98 nM; in assay [11], 0.7 nM; in assay [12] it was 0.728 nM; in the assay with FLAG-tagged mouse Ang2 [13] it was 1.98 nM; in assay [14], 0.728 nM.
